Changes are numbered by the printed parent chain. Names and notes keep the numbering of the source. Values joined by “and” are separate entries in the source; they are usually repeats but may differ in a detail not shown here. Identical values can stand only once.
Key:
[1] = target: T1, human CD3 expressed on cells (Jurkat cells, human T cells) (human, UniProt P07766 22-207); assay: cell-based or functional assay
[2] = target: T1, human CD3 expressed on cells (Jurkat …); assay: cell-based or functional assay; remark: listed apart in the source
[3] = target: T1, human CD3 expressed on cells (Jurkat …); assay: flow cytometry on Jurkat cells
Procedure: Target cells were mixed with the bispecific antibodies serially diluted (final concentration: 0.1 nM-200 nM) in D-PBS (Gibco) containing 3% fetal bovine serum (Sigma, #F7524) and incubated for 1 h on ice. Cells were washed 2 times in D-PBS (Gibco) containing 3% fetal bovine serum (Sigma, #F7524) and 0.02% […]. […] Antibody staining was measured using FACS Array (Beckton Dickinson) or IntelliCyt iQue flow cytometer and analyzed in FlowJo or ForeCyt (IntelliCyt) softwares, respectively. EC₅₀ values were calculated using 4-parameter non-linear regression analysis in Prism software (GraphPad Software Inc.).

[4] = target: Mature human CD3e(22-118)_FLAG-chLys_Avi (human); assay: BLI (Octet), bispecific captured, antigen as analyte
Chain of Mature human CD3e(22-118)_FLAG-chLys_Avi (human) (chain, as listed by the source limits assumed): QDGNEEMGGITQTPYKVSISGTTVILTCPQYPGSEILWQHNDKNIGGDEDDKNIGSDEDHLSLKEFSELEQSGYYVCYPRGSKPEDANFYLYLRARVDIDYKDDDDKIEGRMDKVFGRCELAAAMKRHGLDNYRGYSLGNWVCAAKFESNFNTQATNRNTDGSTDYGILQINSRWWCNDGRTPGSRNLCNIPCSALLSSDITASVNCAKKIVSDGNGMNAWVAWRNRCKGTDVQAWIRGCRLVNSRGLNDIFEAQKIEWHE
Procedure: (§1) Affinity determination by determining kinetic rate constants was performed on an Octet HTX (FortéBIO, Sartorius AG) instrument. […] The association phase was recorded for 180 s, followed by a dissociation phase of 300 s. After each cycle, the biosensors were regenerated two times with 10 mM Glycine HCl pH 1.7 to remove bound ligand/antibody complex, while maintaining the integrity of the capture surface. Between regeneration steps, biosensors were washed with assay buffer for 20 s. Sensorgrams were evaluated with Data Analysis Software v 10 (Octet/fortébio). All sensorgrams were fitted to a 1:1 binding model to determine kₒₙ and koff rate constants, which were used to calculate the KD value. For kinetic profiles deviating from the expected 1:1 binding, the sensorgrams were evaluated using a best approximation to the monovalent kinetics, and results marked with comment “heterogeneous binding”.

[5] = target: Mature human CD3e(22-118)_FLAG-chLys_Avi (human); assay: BLI (Octet), bispecific captured, antigen as analyte; heterogenous binding
Procedure: as §1

[6] = target: T1, human CD3 expressed on cells (Jurkat …); assay: cell-based or functional assay; remark: listed apart in the source
[7] = target: T2, Mature human CD3e(22-49)_Fc2(K105-K330) (human); assay: ELISA, antigen coated on plate
T2 construct: also called hCD3e(22-49)-Fc2(K105-K330); recombinant human CD3e (22-49)-Fc2 (K105-K330)
Procedure: (§2) Bispecific Fab₂-Fc-scFv antibodies according Example 1.2 were tested for their ability to bind to recombinant human and cynomolgus CD3epsilon antigen in ELISA. 5 nM of recombinant human CD3e (22-49)-Fc2 (K105-K330) (SEQ ID NO: 41) or 1 nM of recombinant cynomolgus CD3e (22-49)-Fc2(K105-K330) (SEQ ID NO: 42) were coated on Maxisorp plates (Nunc, #460518). Coated plates were blocked with 5% skim milk in PBS. Antibodies were serially diluted in PBS containing 0.5% skim milk and 0.5% Tween-20. […] EC₅₀ values were calculated using 4-parameter non-linear regression analysis in Prism software (GraphPad Software Inc.)

[8] = target: T3, Mature cynomolgus CD3e(22-49)_Fc2(K105-K330) (cynomolgus); assay: ELISA, antigen coated on plate
T3 construct: also called cyCD3e(22-49)-Fc2(K105-K330); recombinant cynomolgus CD3e (22-49)-Fc2(K105-K330)
Procedure: as §2

[9] = target: T1, human CD3 expressed on cells (Jurkat …); assay: flow cytometry on human T cells, 167 nM antibody
[10] = target: Mature human CD3e(22-118)_FLAG-chLys_Avi (human); assay: BLI (Octet), bispecific captured, antigen as analyte; remark: listed apart in the source
Procedure: Sensorgrams were evaluated with Data Analysis Software v 10 (Octet/fortébio). All sensorgrams were fitted to a 1:1 binding model to determine kₒₙ and koff rate constants, which were used to calculate the KD value. For kinetic profiles deviating from the expected 1:1 binding, the sensorgrams were evaluated using a best approximation to the monovalent kinetics, and results marked with comment “heterogeneous binding”.

T1 sequence (P07766 22-207): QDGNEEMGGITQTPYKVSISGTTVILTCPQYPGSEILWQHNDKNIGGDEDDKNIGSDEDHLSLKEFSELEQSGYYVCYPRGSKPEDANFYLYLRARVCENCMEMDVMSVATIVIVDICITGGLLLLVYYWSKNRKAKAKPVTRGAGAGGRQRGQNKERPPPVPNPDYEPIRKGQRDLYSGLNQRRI

B1: BissIg_18_opt_VH#1 (bispecific antibody, V domains shown)
VH 1: not shown
VL 1: not shown
VH 2: EVQLVESGGGLVQPGGSLRLSCAASGFSFGSHYMSWVRQAPGKGLEWVANINQIGYSSYYVESVKGRFTISRDNAKNSLYLQMNSLRAEDTAVYYCARGYSAEFAHRSGLDVWGQGTLVTVSS
VL 2: QSVLTQPPSASGTPGQRVTISCSGSSSNIGSNYVYWYQQLPGTAPKLLIYRNNQRPSGVPDRFSGSKSGTSASLAISGLRSEDEADYYCAAWDHHRSGAVFGGGTKLTVLGQ
notes: 1+1 IgG1 made by Fab-arm exchange; AEASS Fc; F405L in the CD3 half, K409R in the HER2 half
- Reporter gene assay MCF-7 EC50 [1]: 0.33 nM
- Reporter gene assay SKOV3 EC50 [1]: 0.18 nM
- T cell mediated killing MCF-7 [T cells] IC50 [pM] [2]: 210 pM
- T cell mediated killing SKBR3 [PBMCs] IC50 [pM] [2]: 15 pM
- EC50 [3]: 9 nM
- koff [4]: 0.0044 s⁻¹
- kon [4]: 250000 M⁻¹ s⁻¹
- Kd [5]: 17 nM

B2: BissIg_18_opt_VL (bispecific antibody, V domains shown)
VH 1: not shown
VL 1: not shown
VH 2: B1 VH 2 with S28T, G30S, H32Y, Y33W, N52K, I54D, Y56S, S57E, S58K, E62D
VL 2: B1 VL 2 with A91G, D93S, H94R, H95S, R96L, S97H
notes: as for B1
- koff [4]: 0.0041 s⁻¹
- kon [4]: 150000 M⁻¹ s⁻¹
- Kd [5]: 28 nM

B3: Bisslg_08_#GP (bispecific antibody)
VH: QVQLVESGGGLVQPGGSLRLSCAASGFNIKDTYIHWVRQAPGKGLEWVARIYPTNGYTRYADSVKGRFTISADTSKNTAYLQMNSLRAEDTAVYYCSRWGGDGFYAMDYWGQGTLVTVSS
VL: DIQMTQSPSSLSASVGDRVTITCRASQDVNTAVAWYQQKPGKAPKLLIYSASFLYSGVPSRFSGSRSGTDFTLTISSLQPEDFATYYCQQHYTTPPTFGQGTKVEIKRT
scFv: QSVLTQPPSASGTPGQRVTISCSGSSSNIGSNYVYWYQQLPGTAPKLLIYRNNQRPSGVPDRFSGSKSGTSASLAISGLRSEDEADYYCAAWDHHRSGAVFGGGTKLTVLGQAQPAAPAPNAHEAPAPAQGSEVQLVESGGGLVQPGGSLRLSCAASGFTFSSYWMSWVRQAPGKGLEWVANIKQDGSEKYYVDSVKGRFTISRDNAKNSLYLQMNSLRAEDTAVYYCARGYSAEFAHRSGLDVWGQGTLVTVSS
notes: Format as Bisslg_08_#1: aglycosylated human IgG1, AEASS Fc, knob-into-hole; also called CD3-MABGP in the bispecific 2+1 Fab2-Fc-scFv format; grandparent antibody CD3-MABGP
- RGA @ antibody conc. of 1 nM [S/BG] SKBR3 (Jurkat NFAT reporter gene assay) [6]: 1 S/BG
- EC50 [7]: 248 nM
- EC50 [8]: 369 nM
- T cell binding @ antibody conc. of 167 nM [S/BG] [9]: 1.4 S/BG
- Kd [10]: 240 nM

B4: BissIg_18_opt_cc# (bispecific antibody, human IgG1, kappa, lambda)
heavy 1: not shown
light 1: not shown
heavy 2: EVQLVESGGGLVQPGGSLRLSCAASGFSFGSHYMSWVRQAPGKGLEWVANINQIGYSSYYVESVKGRFTISRDNAKNSLYLQMNSLRAEDTAVYYCARGYSAEFAHRSGLDVWGQGTLVTVSSASTKGPSVFPLAPSSKSTSGGTAALGCLVKDYFPEPVTVSWNSGALTSGVHTFPAVLQSSGLYSLSSVVTVPSSSLGTQTYICNVNHKPSNTKVDKRVEPKSCDKTHTCPPCPAPEAEGAPSVFLFPPKPKDTLMISRTPEVTCVVVDVSHEDPEVKFNWYVDGVEVHNAKTKPREEQYNSTYRVVSVLTVLHQDWLNGKEYKCKVSNKALPSSIEKTISKAKGQPREPQVYTLPPSREEMTKNQVSLTCLVKGFYPSDIAVEWESNGQPENNYKTTPPVLDSDGSFLLYSKLTVDKSRWQQGNVFSCSVMHEALHNHYTQKSLSLSPGK
light 2: not shown
- Reporter gene assay MCF-7 EC50 [1]: < 0.2 nM
- Reporter gene assay SKOV3 EC50 [1]: 0.07 nM
- T cell mediated killing MCF-7 [T cells] IC50 [pM] [2]: < 10 pM and 13.2 pM
- T cell mediated killing SKBR3 [PBMCs] IC50 [pM] [2]: 1.8 pM
- EC50 [3]: 7 nM
- koff [4]: 0.0011 s⁻¹
- kon [4]: 1.2e+06 M⁻¹ s⁻¹
- Kd [5]: 0.9 nM

Reference: patent publication US20250206819A1 (MorphoSys, published 2025)
